Results as given in the supplement of paper PMC9732359.
± gives the uncertainty stated by the source.

assay: protein stability index of a GFP-peptide fusion (yeast GPS) (PSI 1-4); higher = more stable; sorted into four equal gates, so the index is relative within each strain; conditions: san1∆
How it was run: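 Plasmids isolated from each sorting gate were PCR-amplified and Illumina-sequenced, and barcodes assigned the reads to strains. The gates, four of equal size, were set by GFP/Cherry fluorescence ratio on mid-log cultures in leucine-free medium. These cultures were yeast carrying a pooled library of tiled 17-residue yeast protein peptides fused downstream of GFP on a plasmid that also expresses Cherry. The protein stability index is the sum of every gate's read frequency times its gate number.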

| Sequence | protein stability index |
| --- | --- |
| KPTEVNDSENNSSEEDK [ITC1] | 3.17 ± 0.052 |
| KPVMEVTSSFFYRGNYT [FAS1] | 1.91 ± 0.12 |
| KPYSGKLLKVCLTMFED [ECM29] | 2.67 ± 0.045 |
| KQDKTLQKVENQTIKEA [YIL149C/MLP2] | 3.15 ± 0.071 |
| KQGFVIYRVRVRRGNRK [RPL15A] | 1.29 ± 0.26 |
| KQIDIPNFNVEIMQQKF [ECM29] | 3.03 ± 0.11 |
| KQNNKDFRTRYIDIRTN [MTW1] | 2.31 ± 0.1 |
| KQNPGLMQNMMNMFGGG [SRP54] | 2.37 ± 0.088 |
| KQRLDLARQVKLLLLNT [YIL149C/MLP2] | 1.98 ± 0.092 |
| KQSGFGGQTKPVFHKKA [RPL42A] | 2.89 ± 0.043 |
| KQVQDFEENDHPNRVLE [COR1] | 3.19 ± 0.056 |
| KREESESAAVYNGRGAR [SNF2] | 3.35 ± 0.057 |
| KRFNIGADPNYRTYSER [RPR2] | 2.89 ± 0.28 |
| KRKKEANEEPNTENVES [ITC1] | 2.78 ± 0.07 |
| KRKVLELKKKRKIKRLE [SRP72] | 3.38 ± 0.1 |
| KRLNGKRKYLDIPIDEM [SSN2] | 3.23 ± 0.078 |
| KRLTEDERIEKELNTER [CDC53] | 2.33 ± 0.1 |
| KRPIESGTSSDPDTKKV [YIL149C/MLP2] | 3.2 ± 0.062 |
| KRVTKVKRLLFTIRGFK [MTW1] | 2.14 ± 0.057 |
| KSCEPVSISTSVKPHVV [SIR4] | 2.28 ± 0.11 |
| KSDSQYRFYEYIYSQET [MED1] | 2.74 ± 0.12 |
| KSKAEELTQVPSARQKY [UBP6] | 2.38 ± 0.14 |
| KSKLDQDSTSENVKIIN [RPN2] | 2.97 ± 0.074 |
| KSLDAETEAEEDHMLKK [RPO21] | 3.19 ± 0.1 |

| Sequence | protein stability index |
| --- | --- |
| KSLKNNFYRPLLRSVLV [YML103C/NUP188] | 2.04 ± 0.085 |
| KSMITSEGEQKSAEGNN [YAR002W/NUP60] | 3.25 ± 0.035 |
| KSTPEGTLWAHVLKTVD [SNU114] | 2.43 ± 0.072 |
| KTASLGNSKDDLLDMIQ [ISW2] | 3.36 ± 0.059 |
| KTDTKVSFRTHNSHLSL [SRP21] | 2.92 ± 0.053 |
| KTESQDVETRVQNLEQT [DPB4] | 3.2 ± 0.047 |
| KTHRGLRKVACIGAWHP [RPL3] | 2.23 ± 0.087 |
| KTNIIEKAMDYAISIEN [RPN12] | 2.95 ± 0.1 |
| KTQCPNYDTCGGESAYF [RPC11] | 3.24 ± 0.073 |
| KTQFSWQYYYYTLTEEG [RPS10A] | 2.59 ± 0.054 |
| KTRGPFHFRAPSRIFYK [RPL16A] | 2.56 ± 0.061 |
| KTSCVVEKRIGKIVSQR [RGR1] | 3.12 ± 0.045 |
| KTSLMDLLVIDSHKRIP [SNU114] | 2.74 ± 0.063 |
| KTVCAIALILAIQMVDP [SMC3] | 2.08 ± 0.23 |
| KVDWAREHFEKTVAVDS [RPL3] | 1.54 ± 0.15 |
| KVEKRVLGLTILRGEQI [SMB1] | 2 ± 0.17 |
| KVEYKIVHDDPASDDIL [ITC1] | 3.05 ± 0.17 |
| KVIEQPITSETAMKKVE [RPL25] | 2.88 ± 0.066 |
| KVISSDARGVIGVIAGG [RPL2A] | 2.85 ± 0.1 |
| KVLLPSINISCVQLIKC [SWI1] | 1.17 ± 0.18 |
| KVLTALSRLQKSGRING [SMC4] | 3.29 ± 0.083 |
| KVPQQAAGKRISHIEKR [SMC1] | 2.97 ± 0.095 |
| KVSPSMCGVIVKQYNKK [SIN4] | 2.58 ± 0.15 |
| KVTSTLLEQDTSTEKLY [PRE9] | 2.65 ± 0.063 |

| Sequence | protein stability index |
| --- | --- |
| KVVNFWLLHNGFSTGIG [RPO21] | 2.51 ± 0.13 |
| KVVTKKYCEIMGDNSQL [SNF2] | 2.88 ± 0.15 |
| KWSKKSMKDRAQHAVIL [RPS25A] | 2.73 ± 0.091 |
| KYHNDLIEKEIQPKITE [SMC1] | 2.71 ± 0.073 |
| KYIALQVIVDIFSVHGN [YCG1] | 1.14 ± 0.14 |
| KYKPTPLYVMDEIDAAL [SMC4] | 3 ± 0.07 |
| KYNRYEKRHKNVPVHVS [RPS11A] | 1.69 ± 0.092 |
| KYPIFTGESWVKLTYNS [YDL088C/ASM4] | 2.07 ± 0.1 |
| KYRQTKLSKEERAARVA [RPL5] | 2.97 ± 0.13 |
| KYSKLVDNVTLESYKTQ [SRP72] | 3.42 ± 0.1 |
| LAAPKKLNDSQRKTVNS [POP1] | 3.02 ± 0.065 |
| LAAVPAAGPASAGGAAA [RPP2A] | 1.4 ± 0.26 |
| LAFIPNILALNLVSLLI [YML031W/NDC1] | 1.44 ± 0.098 |
| LAHSQHRCAIRSGALIK [SSN2] | 1.16 ± 0.13 |
| LAHVDQIVDIRNKRAVQ [YJL039C/NUP192] | 2.76 ± 0.12 |
| LAIADSPQKFETNLQTF [ECM29] | 3.25 ± 0.048 |
| LAIIGDENPDLLGYTGI [PRE8] | 2.73 ± 0.098 |
| LALERMVPKRSTIITKA [YCS4] | 1.16 ± 0.11 |
| LALINYGRQELADDLIT [RPN2] | 1.57 ± 0.28 |
| LANLIRDALRNIKNTNE [RRP6] | 2.63 ± 0.055 |
| LASAIASGLLRAYLSHS [CSN12] | 1.62 ± 0.071 |
| LASIPDIFITPTPVVTI [SSN2] | 1.45 ± 0.098 |
| LCAGANNPKIQTKDSVK [IRR1] | 3.13 ± 0.11 |
| LCLEKLMCLSSKYCEKS [YCS4] | 2.27 ± 0.18 |

| Sequence | protein stability index |
| --- | --- |
| LCVLDYDNIDIQRGRIL [RPB7] | 3.08 ± 0.13 |
| LDAKNKVFVPPKSKSLP [RPO31] | 3.37 ± 0.085 |
| LDDDSIVNHEQDLPKIN [SRB4] | 2.99 ± 0.09 |
| LDDITDSNTTEILTSVD [SIR4] | 2.94 ± 0.069 |
| LDDLVVLKKKNIQKKQP [RRP6] | 2.08 ± 0.12 |
| LDEVDAALDITNVQRIA [SMC1] | 3.14 ± 0.1 |
| LDFIGRRGTALGIKKEK [RPB2] | 2.27 ± 0.059 |
| LDISVFLLEKAGERKIP [TAF14] | 2.44 ± 0.063 |
| LDKHERKWMEEKADYER [YIL149C/MLP2] | 2.66 ± 0.13 |
| LDKLDEILYYQIKTLPE [AAR2] | 3 ± 0.13 |
| LDLKECYQFAEYLFKPQ [ARP7] | 3.03 ± 0.063 |
| LDLLRPVVRAPTVKYNR [RPL13A] | 1.7 ± 0.17 |
| LDSMIELFKDYKPGSIT [MED1] | 1.82 ± 0.1 |
| LDVDPAKRIRVSHHATT [RPB2] | 2.79 ± 0.082 |
| LDYVRTPAAATSPIDIR [SNF2] | 2.14 ± 0.077 |
| LEASYSKSYTPRKLVLS [SMC4] | 2.11 ± 0.088 |
| LEEITQYEHLIKGIREY [YDL116W/NUP84] | 2.94 ± 0.2 |
| LEEKLYQMQSNYESVFT [YIL149C/MLP2] | 2.52 ± 0.068 |
| LEELAETFQDTFSGALG [FAS2] | 3.21 ± 0.05 |
| LEFYKDKFFNEVNKSEL [SIR3] | 3.25 ± 0.043 |
| LELGSCFSQENIEEMAR [SIN4] | 2.64 ± 0.078 |
| LELIGVLSINPDMYERK [MED7] | 2.89 ± 0.053 |
| LELLNQLDGFSSDDRVK [RPT5] | 2.96 ± 0.051 |
| LELQVAQAFVELENSSP [RPS7A] | 2.92 ± 0.19 |

same assay, conditions: ubr1∆

| Sequence | protein stability index |
| --- | --- |
| KPNDLVGVNKDSYLILD [RPT5] | 3.49 ± 0.14 |
| KPSLVDVHLLESKVYHK [RPN6] | 2.05 ± 0.061 |
| KPTEVNDSENNSSEEDK [ITC1] | 3.3 ± 0.067 |
| KPVMEVTSSFFYRGNYT [FAS1] | 2.1 ± 0.081 |
| KPYSGKLLKVCLTMFED [ECM29] | 2.36 ± 0.058 |
